T1: MusCD100-His (mouse, UniProt O09126)
T1 chain: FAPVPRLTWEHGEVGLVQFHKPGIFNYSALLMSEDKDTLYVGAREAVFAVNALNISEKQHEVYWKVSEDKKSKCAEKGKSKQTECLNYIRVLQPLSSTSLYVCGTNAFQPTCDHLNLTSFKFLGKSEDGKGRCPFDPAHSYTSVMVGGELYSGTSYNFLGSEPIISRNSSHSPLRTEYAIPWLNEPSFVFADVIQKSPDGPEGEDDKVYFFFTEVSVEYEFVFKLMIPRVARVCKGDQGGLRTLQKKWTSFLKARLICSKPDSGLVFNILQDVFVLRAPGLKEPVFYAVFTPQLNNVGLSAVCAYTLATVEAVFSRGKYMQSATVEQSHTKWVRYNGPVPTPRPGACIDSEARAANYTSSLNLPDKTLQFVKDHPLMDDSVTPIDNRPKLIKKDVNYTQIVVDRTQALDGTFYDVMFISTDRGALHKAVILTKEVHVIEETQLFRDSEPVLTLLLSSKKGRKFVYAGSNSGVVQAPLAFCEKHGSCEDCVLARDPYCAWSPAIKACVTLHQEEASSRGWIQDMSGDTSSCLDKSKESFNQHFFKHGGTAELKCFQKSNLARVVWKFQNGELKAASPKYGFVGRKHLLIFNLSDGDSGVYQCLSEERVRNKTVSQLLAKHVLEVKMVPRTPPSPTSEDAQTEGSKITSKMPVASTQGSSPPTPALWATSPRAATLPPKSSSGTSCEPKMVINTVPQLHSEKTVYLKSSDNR

T2: MusCD100 (cell surface) (mouse, UniProt O09126)
T2 chain: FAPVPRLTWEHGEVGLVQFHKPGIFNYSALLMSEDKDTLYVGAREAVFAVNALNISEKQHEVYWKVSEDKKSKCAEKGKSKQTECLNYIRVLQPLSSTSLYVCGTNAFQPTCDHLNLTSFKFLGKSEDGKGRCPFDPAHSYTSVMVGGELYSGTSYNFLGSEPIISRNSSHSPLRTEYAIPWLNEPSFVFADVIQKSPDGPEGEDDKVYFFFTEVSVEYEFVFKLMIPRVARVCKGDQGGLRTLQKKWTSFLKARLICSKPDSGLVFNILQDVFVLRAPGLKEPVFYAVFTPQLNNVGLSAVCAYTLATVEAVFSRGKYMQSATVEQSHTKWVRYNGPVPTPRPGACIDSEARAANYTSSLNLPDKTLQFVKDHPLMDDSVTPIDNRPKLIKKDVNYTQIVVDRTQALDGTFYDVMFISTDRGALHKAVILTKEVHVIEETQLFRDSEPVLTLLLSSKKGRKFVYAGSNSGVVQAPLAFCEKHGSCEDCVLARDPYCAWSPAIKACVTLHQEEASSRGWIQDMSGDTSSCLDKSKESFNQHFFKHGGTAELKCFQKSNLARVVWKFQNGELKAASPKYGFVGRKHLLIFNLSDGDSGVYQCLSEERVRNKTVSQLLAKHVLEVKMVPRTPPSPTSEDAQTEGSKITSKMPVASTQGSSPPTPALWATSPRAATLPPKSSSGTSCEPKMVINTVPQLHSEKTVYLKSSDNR


Experiments:
HuCD100 (cell surface) [1] = target: T3, HuCD100 (cell surface) (human, UniProt Q92854); experiment: FACS, HEK293
T3 sequence (Q92854 22-734): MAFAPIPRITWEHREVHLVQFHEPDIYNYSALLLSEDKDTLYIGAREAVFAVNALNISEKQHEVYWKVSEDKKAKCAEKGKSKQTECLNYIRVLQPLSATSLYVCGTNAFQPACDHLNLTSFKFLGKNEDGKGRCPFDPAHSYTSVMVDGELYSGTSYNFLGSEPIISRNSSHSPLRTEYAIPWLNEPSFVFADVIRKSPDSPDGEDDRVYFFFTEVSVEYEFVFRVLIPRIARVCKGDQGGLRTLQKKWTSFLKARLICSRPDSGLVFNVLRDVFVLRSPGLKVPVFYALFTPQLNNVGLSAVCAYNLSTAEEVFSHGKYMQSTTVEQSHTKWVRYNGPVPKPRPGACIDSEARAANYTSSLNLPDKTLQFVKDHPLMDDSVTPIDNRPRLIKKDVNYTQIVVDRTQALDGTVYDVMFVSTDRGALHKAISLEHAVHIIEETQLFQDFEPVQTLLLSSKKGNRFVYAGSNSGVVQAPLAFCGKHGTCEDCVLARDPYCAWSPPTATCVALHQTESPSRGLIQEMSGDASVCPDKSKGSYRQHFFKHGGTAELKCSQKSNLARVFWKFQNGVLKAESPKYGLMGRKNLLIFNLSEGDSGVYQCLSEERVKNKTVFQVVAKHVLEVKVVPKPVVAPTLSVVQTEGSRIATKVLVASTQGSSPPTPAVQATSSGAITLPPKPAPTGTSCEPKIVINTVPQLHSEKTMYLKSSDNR

MusCD100-His = target: T1, MusCD100-His; experiment: ELISA
HuCD100-His = HuCD100-His (human, UniProt Q92854); experiment: ELISA
Chain of HuCD100-His (Q92854 22-734): as above

HuCD100 (cell surface) [2] = target: T3, HuCD100 (cell surface); experiment: FACS, Jurkat
MusCD100 (cell surface) = target: T2, MusCD100 (cell surface); experiment: FACS, HEK293
HuCD100 (cell surface) [3] = target: T3, HuCD100 (cell surface); experiment: FACS, HuPBMC

| EC50 (HuCD100 (cell surface) [1]) [µg/mL] | EC50 (MusCD100-His) [µg/mL] | EC50 (HuCD100-His) [µg/mL] | EC50 (HuCD100 (cell surface) [2]) [µg/mL] | EC50 (MusCD100 (cell surface)) [µg/mL] | EC50 (HuCD100 (cell surface) [3]) [µg/mL] | Binder |
| --- | --- | --- | --- | --- | --- | --- |
| 0.0369 | 0.0112 | 0.0113 | 0.028 | 0.0758 | 0.0177 | H12 (antibody, V domains shown) VH: QVQLQESGPGLVKPSGTLSLTCAVSGGSISSSNWWSWVRQPPGKGLEWIGEIYHSGSTNYNPSLKSRVTISVDKSKNQFSLKLSSVTAADTAVYYCARFVSSGYLGAFDIWGQGTMVTVSS VL: QSVLTQPPSVSVSPGQTASITCSGDRLGDKYSYWYQQKPGQSPVLVIYQDSKRPSGIPERFSGSNSGNTATLTISGTQAMDEADYYCQVWDSSTAVFGGGTKLTVL |
| 0.0277 | 0.00792 | 0.00613 | 0.0195 | 0.0599 | 0.0145 | A14 (antibody, V domains shown) VH: ETQLVESGGGLVQPGGSLRLSCAASGFPFSSYEMNWVRQAPGKGLEWVAEISSSGSTIYYADSVKGRFTISRDNAKKSLYLQMNSLRAEDTAVYYCARGRFEGYCSSTNCHTGAFDFWGQGTMVTVSS VL: not shown |
| 0.0288 | 0.00722 | 0.00639 | 0.0184 | 0.0606 | 0.0132 | H5 (antibody, V domains shown) VH: QLQLQESGPGLVKPPGTLSLTCAVSGGSISSSNWWSWVRQPPGKGLEWIGEIYHSGSTNYNPSLKSRVTISVDTSKNQFSLKLSSVTAADTAVYYCAVYDFWSGSGLDYWGQGTLVTVSS VL: SYVLTQPPSVSVSPGQTASITCSGDKLGDKFASWYQQKPGQSPVLVIYQDRKRPSRIPERFSGSNSGNTATLTITGTQTIDEADYYCQAWDSGTVIFGGGTKLTVL |
| 0.0269 | 0.0101 | 0.0076 | 0.00851 | 0.0548 | 0.00589 | A15 (antibody, V domains shown) VH: EVQLLESGGGLIQPGGSLRLSCAASGFTVSSNYMSWVRQAPGKGLEWVSVIYSGGSTYYADSVKGRFTISRDNSKNTLYLQMNSLRAEDTAVYYCAREVEGGMDVWGQGTTVTVSS VL: SYVLTQPPSVSVSPGQTASIICSGDKLGDKYVYWYQQKSGQSPVLVIYQDRKRPSGIPERFSGSNSGNTASLAISGLQSEDEADYYCAAWDDSLNGWVFGGGTKLTVL |
| 0.0225 | 0.0109 | 0.00968 | 0.0162 | 0.0504 | 0.0104 | H96 (antibody, V domains shown) VH: QVQLQQWGAGLLKPSETLSLTCAVYGGSFSGYYWSWIRQPPGKGLEWIGEINHSGSTNYNPSLKSRVTISVDTSKNQFSLKLSSVTAADTAVYYCARESNSYGYGTDYWGQGTLVTVSS VL: QSALTQPPSVSVSPGQTATITCSGDKLGEKYAFWYQQKPGQSPVLVIYQDNKRPSGIPERFTGSNSGNTATLTIFGTQTMDEADYYCQAWDSSTYVFGTGTKVTVL |
| 0.0374 | 0.00686 | 0.00595 | 0.0258 | 0.0814 | 0.0154 | H21 (antibody, V domains shown) VH: EVQLVQSGGGLVQPGRSLRLSCAASGFTFDDYAMHWVRQAPGKGLEWVSGISWNSGSIGYADSVKGRFTISRDNAKNSLYLQMNSLRAEDTALYYCAKDIGGSYFDYYYYGMDVWGQGTLVTVSS VL: EIVLTQSPATLSLSPGERATLSCRTSHNVNTYIAWYQQKPGQAPRLLFYDSSTRLPDTPARFSGSGSGTDFTLTISSLEPEDFAVYYCQQRTSWPLTFGGGTKVEIK |
| 0.0274 | 0.00478 | 0.00467 | 0.0138 | 0.05 | 0.00828 | H74 (antibody, V domains shown) VH: QVQLQQWGAGLLKPSETLSLTCAVYGGSFSGYYWSWIRQPPGKGLEWIGEINHSGSTNYNPSLKSRVTISVDTSKNQFSLKLSSVTAADTAVYYCAGTRWLQFPLNYWGQGTLVTVSS VL: SYVLTQPPSVSVSPGQTASITCSGDKLGDKYAYWYQQKPGQSPVLVLYQDAKRPSGIPERFSGSNSGNTATLTISGTQAMDEADYYCQAWDSSTAGYVFGTGTKVTVL |
| 0.0346 | 0.00842 | 0.00733 | 0.0185 | 0.0697 | 0.0109 | B13 (antibody, V domains shown) VH: QVQLQQWGAGLLKPSETLSLTCAISSGSFSGYYWTWIRQPPGKGLEWIGETNHNGFTTYNTSLKSRITISIDASKNQFYLNLSSVTAADTATYFCARGPAYYADALDGFDIWGQGTMVTVSS VL: QSVLTQPPSVSVSPGQTASITCSGDKLGDKYVSWYQQKPGQSPVLVIYQDNKRPSGIPERFSGSNSGNTATLTISGTQAMDEADYYCQAWDSSTKAYVFGAGTKVTVL |
| 0.0879 | 0.00936 | 0.0119 | 0.108 | 0.118 | 0.177 | C-B71 (antibody, V domains shown) VH: QVQLQESGPGLVKPSQTLSLTCTVSGGSISSGGYYWSWIRQHPGKGLEWIGYIYYSGSTYYNPSLKSRVTISVDTSKNQFSLKLSSVTAADTAVYYCAREGVAAAGIDYWGQGTPVTVSS VL: NIQLTQSPSSVSASVGDRVTITCRASQGISSWLAWYQQKPGKAPKLLISTASSVQSGVPTRFSASGSGTDFTLTISSLQPEDFATYYCQQGYRTPWTFGQGTKVEIK |
| 0.167 | 0.031 | 0.0107 | 0.449 | 0.31 | 0.0859 | C-C171 (antibody, V domains shown) VH: QVQLQESGPGLVKPSGTLSLSCTVSGGSMSSNYLWSWVRQTPGKGLQWIGDIFHSGRTYYNPSLKRRVTISVDKSKNQFSLKLSSVTAADTAVYYCARQGWTTPFDYWGQGTPVTVSS VL: DIQLTQSPSSVSASVGDRVTITCRASQGISSWLAWYQQKPGKAPKLLIYAASSLQSGVPSRFSGSGSGTDFTLTISSLQPEDFATYYCLQDVYYPWTFGQGTTVEIK |
| 0.0927 | 0.0541 | 0.0141 | 0.73 | 0.185 | 0.0194 | C-C081 (antibody, V domains shown) VH: QVQLLESGGGLVKPGGSLRLSCAASGFTFSSYSMNWVRQAPGKGLEWVSSISSSSSYIYYADSVKGRFTISRDNAKNSLYLQMNSLRAEDTAVYYCARDHYPGPDAFDVWGQGTMVTVSS VL: not shown |

Reference: patent US20260347464 (published 2026)
